Measured values as given in US20070203188, “Low molecular weight Myc-Max inhibitors” (University of Pittsburgh, published 2007).

Target: c-Myc353-439 (bHLH-LZ)/Max(S) heterodimer (Homo sapiens, UniProt P01106;P61244-2 P01106:368-454,P61244-2:1-151)
Assay: EMSA; 60 nM each protein, 10 nM DNA; 1xPBS pH 7.3, 1 mM EDTA, 0.1% NP40, 5% glycerol, 1 mM DTT, 0.4 mg/mL BSA, 25 C; binding inhibited dose-dependently by 10058-F4 and analogs
Details: tags: c-Myc: His6 cleaved by TEV, GGCD C-terminal extension, label: 5'-HEX on one strand
Procedure: Electrophoretic mobility shift Assays (EMSAs). Experiments were performed on 8% polyacrylamide:bis-acrylamide (80:1) gels in 0.5×TBE. Binding reactions were prepared in a buffer consisting of 1×PBS (pH 7.3); 1 mM EDTA; 0.1% NP40; 5% glycerol; 1 mM dithiothreitol; and 0.4 mg/mL BSA. A 22 base-pair E-box-containing double-stranded DNA oligonucleotide labeled on one strand with hexachlorofluoresceine (HEX) consisted of the following sequence:
The second method used to gauge the effects of 10058-F4 and its analogs on c-Myc-Max complexes relied on the use of a simple, three component electrophoretic mobility shift assay (EMSA). For this purpose, a recombinant c-Myc peptide, which encompasses the bHLH-LZ domain (c-_{Myc353-439}), together with the full-length His₆-tagged 151 amino acid isoform of Max [designated Max(S)] (Zhang H, et al. J Biol Chem 1997; 272; 17416-24 and Prochownik E V, et al. Proc Natl Acad Sci USA 1993; 90:960-4) were incubated in increasing concentrations of each relevant compound. The ability of the resultant heterodimer to bind a double-stranded target oligonucleotide containing a consensus E-box motif was then assessed by PAGE. […]

Chain of c-Myc353-439 (bHLH-LZ)/Max(S) heterodimer (P01106 368-454, chain 1 of 2): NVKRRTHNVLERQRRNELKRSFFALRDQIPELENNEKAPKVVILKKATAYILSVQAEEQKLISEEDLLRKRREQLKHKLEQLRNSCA
Chain of c-Myc353-439 (bHLH-LZ)/Max(S) heterodimer (P61244 other isoform, or with tags, fused parts or gaps, chain 2 of 2): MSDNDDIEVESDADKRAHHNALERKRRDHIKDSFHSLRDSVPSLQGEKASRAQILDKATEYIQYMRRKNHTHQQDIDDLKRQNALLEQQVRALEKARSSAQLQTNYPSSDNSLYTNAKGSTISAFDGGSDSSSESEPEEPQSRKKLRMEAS

B1: E-box 22-mer duplex (dsDNA)
DNA 1: CACCCGGTCACGTGGCCTACAC
DNA 2: GTGTAGGCCACGTGACCGGGTG
binding result: binds
